According to patent publication US20230323466A1, “DETERMINING CANCER RESPONSIVENESS TO TREATMENT” (Queensland University of Technology, priority 2020, published 2023):

System: EGFR
Assay: EGF stimulation of EGFR wildtype cells, western blot of CDCA3 (FIG. 11)
Format: cell-based
Details: EGFR wildtype cells stimulated with EGF
Source text: FIG. 11. CDCA3 levels are elevated in EGFR^mutNSCLC cell lines. Stimulation of receptor tyrosine kinase (RTK) signalling in EGFR wildtype cells induces the upregulation of CDCA3 protein.
The current Example examined whether elevated CDCA3 was as a result of activating mutations in epidermal growth factor receptor (EGFR) that solely occur in cases of NSCLC adenocarcinoma. In in vitro models of disease, CDCA3 protein levels were examined by western blot analysis and it was identified that CDCA3 protein is markedly elevated in EGFR mutant NSCLC cell lines versus EGFR wildtype cell lines (FIG. 11). The present inventors also identified that stimulation of EGFR wildtype cells with EGF, an EGFR ligand, induced PI3K-Akt downstream signal transduction and the upregulation of CDCA3 protein. PI3K-Akt was constitutively activated in EGFR mutant NSCLC cell lines.

B1: EGF: an EGFR ligand (protein, UniProt P01133 23-1207, looked up)
Pro-epidermal growth factor: PQHWSCPEGTLAGNGNSTCVGPAPFLIFSHGNSIFRIDTEGTNYEQLVVDAGVSVIMDFHYNEKRIYWVDLERQLLQRVFLNGSRQERVCNIEKNVSGMAINWINEEVIWSNQQEGIITVTDMKGNNSHILLSALKYPANVAVDPVERFIFWSSEVAGSLYRADLDGVGVKALLETSEKITAVSLDVLDKRLFWIQYNREGSNSLICSCDYDGGSVHISKHPTQHNLFAMSLFGDRIFYSTWKMKTIWIANKHTGKDMVRINLHSSFVPLGELKVVHPLAQPKAEDDTWEPEQKLCKLRKGNCSSTVCGQDLQSHLCMCAEGYALSRDRKYCEDVNECAFWNHGCTLGCKNTPGSYYCTCPVGFVLLPDGKRCHQLVSCPRNVSECSHDCVLTSEGPLCFCPEGSVLERDGKTCSGCSSPDNGGCSQLCVPLSPVSWECDCFPGYDLQLDEKSCAASGPQPFLLFANSQDIRHMHFDGTDYGTLLSQQMGMVYALDHDPVENKIYFAHTALKWIERANMDGSQRERLIEEGVDVPEGLAVDWIGRRFYWTDRGKSLIGRSDLNGKRSKIITKENISQPRGIAVHPMAKRLFWTDTGINPRIESSSLQGLGRLVIASSDLIWPSGITIDFLTDKLYWCDAKQSVIEMANLDGSKRRRLTQNDVGHPFAVAVFEDYVWFSDWAMPSVMRVNKRTGKDRVRLQGSMLKPSSLVVVHPLAKPGADPCLYQNGGCEHICKKRLGTAWCSCREGFMKASDGKTCLALDGHQLLAGGEVDLKNQVTPLDILSKTRVSEDNITESQHMLVAEIMVSDQDDCAPVGCSMYARCISEGEDATCQCLKGFAGDGKLCSDIDECEMGVPVCPPASSKCINTEGGYVCRCSEGYQGDGIHCLDIDECQLGEHSCGENASCTNTEGGYTCMCAGRLSEPGLICPDSTPPPHLREDDHHYSVRNSDSECPLSHDGYCLHDGVCMYIEALDKYACNCVVGYIGERCQYRDLKWWELRHAGHGQQQKVIVVAVCVVVLVMLLLLSLWGAHYYRTQKLLSKNPKNPYEESSRDVRSRRPADTEDGMSSCPQPWFVVIKEHQDLKNGGQPVAGEDGQAADGSMQPTSWRQEPQLCGMGTEQGCWIPVSSDKGSCPQVMERSFHMPSYGTQTLEGGVEKPHSLLSANPLWQQRALDPPHQMELTQ
modifications: Pro-epidermal growth factor
notes: an EGFR ligand
CDCA3 protein: upregulation
